We go through eight molecules from patent US20150203577A1 (Chugai, published 2015).

One test has as its target T1, mouse FcγRII (mouse, UniProt P08101 30-210).
T1 construct: also called mFcγRII; mFcgRII
T1 sequence: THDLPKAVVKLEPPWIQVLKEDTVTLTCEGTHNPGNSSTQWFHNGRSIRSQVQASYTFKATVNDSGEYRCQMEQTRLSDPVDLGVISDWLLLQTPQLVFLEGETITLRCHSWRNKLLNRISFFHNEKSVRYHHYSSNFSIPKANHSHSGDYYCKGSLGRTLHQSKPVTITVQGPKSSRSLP
In words: SPR Biacore 4000, KD ratio. The method, then:
(§1) Each altered antibody was analyzed for its interaction with each Fcγ receptor prepared above using Biacore T100 (GE Healthcare Japan Corp.), Biacore T200 (GE Healthcare Japan Corp.), Biacore A100, or Biacore 4000. The running buffer used was HBS-EP+ (GE Healthcare Japan Corp.). The assay temperature was set to 25° C. The sensor chips used were chips prepared by immobilizing Protein L (ACTIGEN or BioVision) onto Series S Sensor Chip CM5 (GE Healthcare Japan Corp.) or Series S Sensor Chip CM4 (GE Healthcare Japan Corp.) by the amine coupling method.
(§2) In order to calculate the KD value of each altered antibody for FcγR, kinetic analysis was conducted according to the following method: first, the antibody of interest was captured onto any of these chips and allowed to interact with mFcγR diluted with a running buffer. For the obtained sensorgram, the assay results were globally fit into the 1:1 Langmuir binding model using Biacore Evaluation Software to calculate an association rate constant ka (L/mol/s) and a dissociation rate constant kd (1/s). From these values, the dissociation constant KD (mol/L) was calculated.

The target of another test is T2, mouse FcγRIII (mouse, UniProt P08508 31-215).
T2 construct: also called mFcγRIII; mFcgRIII
T2 chain: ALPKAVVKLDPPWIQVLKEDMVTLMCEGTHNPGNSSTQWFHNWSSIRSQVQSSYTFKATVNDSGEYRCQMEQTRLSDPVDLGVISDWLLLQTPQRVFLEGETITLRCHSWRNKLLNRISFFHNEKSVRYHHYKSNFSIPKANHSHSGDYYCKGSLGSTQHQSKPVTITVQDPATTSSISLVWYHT
In words: SPR Biacore 4000, KD ratio. The method, then:
as §1, §2
(In general: SPR reads the build-up and loss of mass on a sensor chip optically.)

B1: MB025 (antibody, mouse IgG1, kappa)
heavy: QVQLQESGPGLVKPSETLSLTCAVSGHSISHDHAWSWVRQPPGEGLEWIGFISYSGITNYNPSLQGRVTISRDNSKNTLYLQMNSLRAEDTAVYYCARSLARTTAMDYWGEGTLVTVSSAKTTPPSVYPLAPGSAAQTNSMVTLGCLVKGYFPEPVTVTWNSGSLSSGVHTFPAVLQSDLYTLSSSVTVPSSTWPSETVTCNVAHPASSTKVDKKIVPRDCGCKPCICTIPEVSSVFIFPPKPKDVLTITLTPKVTCVVVDISKDDPEVQFSWFVDDVEVHTAQTQPREEQFNSTFRSVSELPIMHQDWLNGKEFKCRVNSAAFPAPIEKTISKTKGRPKAPQVYTIPPPKEQMAKDKVSLTCMITDFFPEDITVEWQWNGQPAENYKNTQPIMDTDGSYFVYSKLNVQKSNWEAGNTFTCSVLHEGLHNHHTEKSLSHSPGK
light: not shown
notes: copies: 2 + 2
B1: the “relative mFcγRII-binding activity (mIgG1 = 1)” value in the test with mouse FcγRII was 1.19 fold. In the test with mouse FcγRIII, the “relative mFcγRIII-binding activity (mIgG1 = 1)” value came to 1.06 fold.

B2: MB030 (antibody, mouse IgG1, kappa)
heavy: QVQLQESGPGLVKPSETLSLTCAVSGHSISHDHAWSWVRQPPGEGLEWIGFISYSGITNYNPSLQGRVTISRDNSKNTLYLQMNSLRAEDTAVYYCARSLARTTAMDYWGEGTLVTVSSAKTTPPSVYPLAPGSAAQTNSMVTLGCLVKGYFPEPVTVTWNSGSLSSGVHTFPAVLQSDLYTLSSSVTVPSSTWPSETVTCNVAHPASSTKVDKKIVPRDCGCKPCICTPPEVSSVFIFPPKPKDVLTITLTPKVTCVVVDISKDDPEVQFSWFVDDVEVHTAQTQPREEQFNSTFRSVSELPIMHQDWLNGKEFKCRVNSAAFPAPIEKTISKTKGRPKAPQVYTIPPPKEQMAKDKVSLTCMITDFFPEDITVEWQWNGQPAENYKNTQPIMDTDGSYFVYSKLNVQKSNWEAGNTFTCSVLHEGLHNHHTEKSLSHSPGK
light: not shown
notes: copies: 2 + 2
As for B2, the “relative mFcγRII-binding activity (mIgG1 = 1)” value in the test with mouse FcγRII was 5.26 fold. For the same molecule, in the test with mouse FcγRIII, the “relative mFcγRIII-binding activity (mIgG1 = 1)” value was determined as 2.27 fold.

B3: MB038 (antibody, mouse IgG1, kappa)
heavy: QVQLQESGPGLVKPSETLSLTCAVSGHSISHDHAWSWVRQPPGEGLEWIGFISYSGITNYNPSLQGRVTISRDNSKNTLYLQMNSLRAEDTAVYYCARSLARTTAMDYWGEGTLVTVSSAKTTPPSVYPLAPGSAAQTNSMVTLGCLVKGYFPEPVTVTWNSGSLSSGVHTFPAVLQSDLYTLSSSVTVPSSTWPSETVTCNVAHPASSTKVDKKIVPRDCGCKPCICTVDEVSSVFIFPPKPKDVLTITLTPKVTCVVVDISKDDPEVQFSWFVDDVEVHTAQTQPREEQFNSTFRSVSELPIMHQDWLNGKEFKCRVNSAAFPAPIEKTISKTKGRPKAPQVYTIPPPKEQMAKDKVSLTCMITDFFPEDITVEWQWNGQPAENYKNTQPIMDTDGSYFVYSKLNVQKSNWEAGNTFTCSVLHEGLHNHHTEKSLSHSPGK
light: not shown
notes: copies: 2 + 2
On to B3, for which the “relative mFcγRII-binding activity (mIgG1 = 1)” value with mouse FcγRII amounted to 3.15 fold. In the test with mouse FcγRIII, the “relative mFcγRIII-binding activity (mIgG1 = 1)” value turned out to be 1.37 fold.

B4: MB031 (antibody, mouse IgG1, kappa)
heavy: QVQLQESGPGLVKPSETLSLTCAVSGHSISHDHAWSWVRQPPGEGLEWIGFISYSGITNYNPSLQGRVTISRDNSKNTLYLQMNSLRAEDTAVYYCARSLARTTAMDYWGEGTLVTVSSAKTTPPSVYPLAPGSAAQTNSMVTLGCLVKGYFPEPVTVTWNSGSLSSGVHTFPAVLQSDLYTLSSSVTVPSSTWPSETVTCNVAHPASSTKVDKKIVPRDCGCKPCICTQPEVSSVFIFPPKPKDVLTITLTPKVTCVVVDISKDDPEVQFSWFVDDVEVHTAQTQPREEQFNSTFRSVSELPIMHQDWLNGKEFKCRVNSAAFPAPIEKTISKTKGRPKAPQVYTIPPPKEQMAKDKVSLTCMITDFFPEDITVEWQWNGQPAENYKNTQPIMDTDGSYFVYSKLNVQKSNWEAGNTFTCSVLHEGLHNHHTEKSLSHSPGK
light: not shown
notes: copies: 2 + 2
B4: the “relative mFcγRII-binding activity (mIgG1 = 1)” value with mouse FcγRII was found to be 1.99 fold. In the test with mouse FcγRIII, the “relative mFcγRIII-binding activity (mIgG1 = 1)” value was 1.48 fold.

B5: MB034 (antibody, mouse IgG1, kappa)
heavy: QVQLQESGPGLVKPSETLSLTCAVSGHSISHDHAWSWVRQPPGEGLEWIGFISYSGITNYNPSLQGRVTISRDNSKNTLYLQMNSLRAEDTAVYYCARSLARTTAMDYWGEGTLVTVSSAKTTPPSVYPLAPGSAAQTNSMVTLGCLVKGYFPEPVTVTWNSGSLSSGVHTFPAVLQSDLYTLSSSVTVPSSTWPSETVTCNVAHPASSTKVDKKIVPRDCGCKPCICTTPEVSSVFIFPPKPKDVLTITLTPKVTCVVVDISKDDPEVQFSWFVDDVEVHTAQTQPREEQFNSTFRSVSELPIMHQDWLNGKEFKCRVNSAAFPAPIEKTISKTKGRPKAPQVYTIPPPKEQMAKDKVSLTCMITDFFPEDITVEWQWNGQPAENYKNTQPIMDTDGSYFVYSKLNVQKSNWEAGNTFTCSVLHEGLHNHHTEKSLSHSPGK
light: not shown
notes: copies: 2 + 2
Take B5: the “relative mFcγRII-binding activity (mIgG1 = 1)” value with mouse FcγRII was determined as 1.25 fold. Also, the “relative mFcγRIII-binding activity (mIgG1 = 1)” value in the test with mouse FcγRIII was 1.12 fold.

B6: MB027 (antibody, mouse IgG1, kappa)
heavy: QVQLQESGPGLVKPSETLSLTCAVSGHSISHDHAWSWVRQPPGEGLEWIGFISYSGITNYNPSLQGRVTISRDNSKNTLYLQMNSLRAEDTAVYYCARSLARTTAMDYWGEGTLVTVSSAKTTPPSVYPLAPGSAAQTNSMVTLGCLVKGYFPEPVTVTWNSGSLSSGVHTFPAVLQSDLYTLSSSVTVPSSTWPSETVTCNVAHPASSTKVDKKIVPRDCGCKPCICTLPEVSSVFIFPPKPKDVLTITLTPKVTCVVVDISKDDPEVQFSWFVDDVEVHTAQTQPREEQFNSTFRSVSELPIMHQDWLNGKEFKCRVNSAAFPAPIEKTISKTKGRPKAPQVYTIPPPKEQMAKDKVSLTCMITDFFPEDITVEWQWNGQPAENYKNTQPIMDTDGSYFVYSKLNVQKSNWEAGNTFTCSVLHEGLHNHHTEKSLSHSPGK
light: not shown
notes: copies: 2 + 2
With B6, in the test with mouse FcγRII, the “relative mFcγRII-binding activity (mIgG1 = 1)” value turned out to be 1.88 fold. Moreover, in the test with mouse FcγRIII, the “relative mFcγRIII-binding activity (mIgG1 = 1)” value is 1.55 fold.

B7: MB028 (antibody, mouse IgG1, kappa)
heavy: QVQLQESGPGLVKPSETLSLTCAVSGHSISHDHAWSWVRQPPGEGLEWIGFISYSGITNYNPSLQGRVTISRDNSKNTLYLQMNSLRAEDTAVYYCARSLARTTAMDYWGEGTLVTVSSAKTTPPSVYPLAPGSAAQTNSMVTLGCLVKGYFPEPVTVTWNSGSLSSGVHTFPAVLQSDLYTLSSSVTVPSSTWPSETVTCNVAHPASSTKVDKKIVPRDCGCKPCICTMPEVSSVFIFPPKPKDVLTITLTPKVTCVVVDISKDDPEVQFSWFVDDVEVHTAQTQPREEQFNSTFRSVSELPIMHQDWLNGKEFKCRVNSAAFPAPIEKTISKTKGRPKAPQVYTIPPPKEQMAKDKVSLTCMITDFFPEDITVEWQWNGQPAENYKNTQPIMDTDGSYFVYSKLNVQKSNWEAGNTFTCSVLHEGLHNHHTEKSLSHSPGK
light: not shown
notes: copies: 2 + 2
Take B7: the “relative mFcγRII-binding activity (mIgG1 = 1)” value with mouse FcγRII was 1.83 fold. The “relative mFcγRIII-binding activity (mIgG1 = 1)” value in the test with mouse FcγRIII is 1.42 fold.

B8: MB037 (antibody, mouse IgG1, kappa)
heavy: QVQLQESGPGLVKPSETLSLTCAVSGHSISHDHAWSWVRQPPGEGLEWIGFISYSGITNYNPSLQGRVTISRDNSKNTLYLQMNSLRAEDTAVYYCARSLARTTAMDYWGEGTLVTVSSAKTTPPSVYPLAPGSAAQTNSMVTLGCLVKGYFPEPVTVTWNSGSLSSGVHTFPAVLQSDLYTLSSSVTVPSSTWPSETVTCNVAHPASSTKVDKKIVPRDCGCKPCICTVAEVSSVFIFPPKPKDVLTITLTPKVTCVVVDISKDDPEVQFSWFVDDVEVHTAQTQPREEQFNSTFRSVSELPIMHQDWLNGKEFKCRVNSAAFPAPIEKTISKTKGRPKAPQVYTIPPPKEQMAKDKVSLTCMITDFFPEDITVEWQWNGQPAENYKNTQPIMDTDGSYFVYSKLNVQKSNWEAGNTFTCSVLHEGLHNHHTEKSLSHSPGK
light: not shown
notes: copies: 2 + 2
B8: the “relative mFcγRII-binding activity (mIgG1 = 1)” value with mouse FcγRII was 1.54 fold. In the test with mouse FcγRIII, the “relative mFcγRIII-binding activity (mIgG1 = 1)” value worked out at 1.22 fold.
